We go through one substance from patent US20180117084A1.

The target of the test is full-length CTLA-4 (flCTLA-4) secreted by human dendritic cells on microvesicles/exosomes (human) (UniProt P16410). The test is described as follows: cell-based or functional assay.
Sequence of UniProt P16410 (P16410 36-223 limits assumed): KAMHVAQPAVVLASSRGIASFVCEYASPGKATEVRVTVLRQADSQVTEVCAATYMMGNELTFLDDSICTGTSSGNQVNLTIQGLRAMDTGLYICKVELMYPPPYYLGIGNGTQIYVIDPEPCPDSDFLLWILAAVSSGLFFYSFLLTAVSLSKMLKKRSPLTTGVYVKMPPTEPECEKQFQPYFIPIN

In the case of “αHuman CTLA-4 clone BNI3 (cat #: 555851, BD Pharmingen) (antibody)”, the percentage of CFSE+ recipient DC after pre-clearance of supernatant with αCTLA-4 beads (20 minutes at 4 C, 0.1% sodium azide) was 45%; the uptake of CFSE-labeled exosomes by unlabeled DC after incubation of supernatant with αCTLA-4 coated beads, antibody at 5 µg/ml came out at 26%; the uptake of CFSE-labeled exosomes by unlabeled DC after incubation of supernatant with αCTLA-4 coated beads, antibody at 50 µg/ml stood at 35%.
